In patent publication US20240417440A1 (published 2024):

Key:
[1] = target: T1, NY-ESO-1 peptide on HLA-A*02:01 (human); experiment: cytokine release
T1 peptide: FTVSGNILTI

[2] = target: T2, NY-ESO-1 peptide on HLA-A*02:01 (human); experiment: cytokine release
T2 peptide: RLLEFYLAM

[3] = target: T3, NY-ESO-1/LAGE-1 peptide on HLA-A*02:01 (human); experiment: multimer staining
T3 peptide: SLLMWITQC

- binding result [1]: no recognition
- binding result [2]: no recognition
- binding result [3]: recognises
B1: T11.8-10-17 (TCR, V domains shown)
Valpha: QKEVEQNSGPLSVPEGAIASLNCTYSDRGSQSFFWYRQYSGKSPELIMFIYSNGDKEDGRFTAQLNKASQYVSLLIRDSQPSDSATYLCAADDKIIFGKGTRLHILP
Vbeta: DAGVIQSPRHEVTEMGQEVTLRCKPISGHDYLFWYRQTMMRGLELLIYFNNNVPIDDSGMPEDRFSAKMPNASFSTLKIQPSEPRDSAVYFCASSRGGSGYTFGSGTRLTVV
